Measured values reported in the supplement of paper PMC9112550, “Optimization of the antimicrobial peptide Bac7 by deep mutational scanning” (BMC Biology, 2022).

Test system: Escherichia coli TOP10
Experiment: shrunken log2 fold change of peptide-encoding DNA abundance (4.5 h post-induction vs induction); higher = less antimicrobial activity (less host growth inhibition)
Conditions: time post-induction: 4.5 h; library: site-saturation at positions 5, 18, 19, 20
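Note: peptides expressed intracellularly from a pBAD plasmid library in pooled LB shake-flask culture, induced with 0.3% L-arabinose, DNA abundance read by NGS, three biological replicates, DESeq2 with apeglm shrinkage.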

Sequence | shrunken log2 fold change
RRIRDRPPRLPRPRPRPPFTPRP | 1.76
RRIRRRPPRLPRPRPRPKYEPRP | 0.811
RRIRERPPRLPRPRPRPSPSPRP | -0.269
RRIRPRPPRLPRPRPRPDCCPRP | -0.0125
RRIRRRPPRLPRPRPRPHQAPRP | -0.019
RRIRVRPPRLPRPRPRPHIQPRP | -0.528
RRIRIRPPRLPRPRPRPDALPRP | -0.206
RRIRERPPRLPRPRPRPPADPRP | 0.152
RRIRFRPPRLPRPRPRPFWEPRP | -0.193
RRIRVRPPRLPRPRPRPMNCPRP | 0.0359
RRIRSRPPRLPRPRPRPSEKPRP | 0.029
RRIRQRPPRLPRPRPRPYFCPRP | -0.396
RRIRNRPPRLPRPRPRPGNVPRP | -0.107
RRIRKRPPRLPRPRPRPWPAPRP | 0.376
RRIRFRPPRLPRPRPRPLWMPRP | -0.0523
RRIRVRPPRLPRPRPRPHRPPRP | -0.243
RRIRRRPPRLPRPRPRPQVYPRP | -0.0473
RRIRPRPPRLPRPRPRPVGSPRP | 0.261
RRIRLRPPRLPRPRPRPPMHPRP | 0.363
RRIRIRPPRLPRPRPRPRHHPRP | -0.408
RRIRKRPPRLPRPRPRPGGSPRP | 0.178
RRIRDRPPRLPRPRPRPYWNPRP | -0.602
RRIRCRPPRLPRPRPRPDIEPRP | -0.0833
RRIRFRPPRLPRPRPRPFGMPRP | -0.223
RRIRFRPPRLPRPRPRPLDGPRP | -0.143

Sequence | shrunken log2 fold change
RRIRIRPPRLPRPRPRPFQPPRP | -0.407
RRIRERPPRLPRPRPRPCHSPRP | -0.0339
RRIRHRPPRLPRPRPRPQLDPRP | 0.153
RRIRRRPPRLPRPRPRPTYFPRP | 0.0897
RRIRLRPPRLPRPRPRPVFPPRP | 0.263
RRIRCRPPRLPRPRPRPYEQPRP | -0.435
RRIRSRPPRLPRPRPRPPEEPRP | -0.0451
RRIRDRPPRLPRPRPRPPIAPRP | -0.0649
RRIRNRPPRLPRPRPRPVSHPRP | -0.0709
RRIRTRPPRLPRPRPRPHSIPRP | -0.0668
RRIRFRPPRLPRPRPRPYQHPRP | -0.898
RRIRVRPPRLPRPRPRPAMQPRP | 0.193
RRIRRRPPRLPRPRPRPSFWPRP | 0.38
RRIRTRPPRLPRPRPRPYVPPRP | -0.1
RRIRGRPPRLPRPRPRPIHMPRP | -0.0548
RRIRDRPPRLPRPRPRPEHVPRP | 0.212
RRIRHRPPRLPRPRPRPCMDPRP | -0.0981
RRIRERPPRLPRPRPRPMCPPRP | -0.0308
RRIRWRPPRLPRPRPRPWPPPRP | 0.546
RRIRHRPPRLPRPRPRPGDMPRP | -0.157
RRIRWRPPRLPRPRPRPMYGPRP | -0.0856
RRIRWRPPRLPRPRPRPEGPPRP | 0.438
RRIRFRPPRLPRPRPRPSDIPRP | -0.385
RRIRMRPPRLPRPRPRPLHKPRP | 0.301
RRIRCRPPRLPRPRPRPAMWPRP | 0.295

Sequence | shrunken log2 fold change
RRIRYRPPRLPRPRPRPIQLPRP | -0.0605
RRIRYRPPRLPRPRPRPLWNPRP | -0.471
RRIRLRPPRLPRPRPRPNEIPRP | 0.0349
RRIRCRPPRLPRPRPRPHLMPRP | -0.223
RRIRLRPPRLPRPRPRPMFWPRP | 0.145
RRIRSRPPRLPRPRPRPPKLPRP | -0.11
RRIRARPPRLPRPRPRPHCSPRP | -0.131
RRIRHRPPRLPRPRPRPLGLPRP | 0.393
RRIRIRPPRLPRPRPRPSASPRP | 0.0632
RRIRYRPPRLPRPRPRPVFAPRP | 0.0473
RRIRRRPPRLPRPRPRPVTYPRP | -0.0642
RRIRQRPPRLPRPRPRPYGVPRP | -0.0132
RRIRERPPRLPRPRPRPGYNPRP | -0.0871
RRIRKRPPRLPRPRPRPKSYPRP | -0.177
RRIRVRPPRLPRPRPRPEPVPRP | 0.365
RRIRKRPPRLPRPRPRPQRRPRP | 0.734
RRIRCRPPRLPRPRPRPVLGPRP | 0.0642
RRIRIRPPRLPRPRPRPSEGPRP | -0.0262
RRIRPRPPRLPRPRPRPAYGPRP | 0.144
RRIRYRPPRLPRPRPRPPGQPRP | 0.0011
RRIRWRPPRLPRPRPRPIPFPRP | -0.102
RRIRIRPPRLPRPRPRPPSQPRP | 0.258
RRIRGRPPRLPRPRPRPLTYPRP | 0.279
RRIRQRPPRLPRPRPRPKDQPRP | 0.0983
RRIRARPPRLPRPRPRPNRMPRP | 0.0574

Sequence | shrunken log2 fold change
RRIRPRPPRLPRPRPRPSQGPRP | -0.418
RRIRERPPRLPRPRPRPKDHPRP | -0.323
RRIRTRPPRLPRPRPRPVAKPRP | 0.111
RRIRYRPPRLPRPRPRPKDYPRP | -0.787
RRIRYRPPRLPRPRPRPVVRPRP | -0.203
RRIRGRPPRLPRPRPRPVCVPRP | 0.891
RRIRCRPPRLPRPRPRPQCMPRP | -0.833
RRIRTRPPRLPRPRPRPGKHPRP | -0.803
RRIRHRPPRLPRPRPRPKAFPRP | 0.0173
RRIRNRPPRLPRPRPRPYAWPRP | -0.141
RRIRKRPPRLPRPRPRPLRVPRP | 1.04
RRIRPRPPRLPRPRPRPHWVPRP | -0.137
RRIRQRPPRLPRPRPRPSLAPRP | 0.404
RRIRPRPPRLPRPRPRPCLMPRP | -0.393
RRIRIRPPRLPRPRPRPRRIPRP | -0.677
RRIRKRPPRLPRPRPRPTQHPRP | 0.748
RRIRPRPPRLPRPRPRPMQYPRP | -0.0088
RRIRTRPPRLPRPRPRPQAFPRP | 0.0884
RRIRMRPPRLPRPRPRPENFPRP | 0.0515
RRIRWRPPRLPRPRPRPHDLPRP | -0.0525
RRIRQRPPRLPRPRPRPINHPRP | 0.147
RRIRIRPPRLPRPRPRPIMAPRP | -0.286
RRIRVRPPRLPRPRPRPMENPRP | -0.0625
RRIRARPPRLPRPRPRPEDFPRP | 1.11
RRIRLRPPRLPRPRPRPTWGPRP | 0.637

Sequence | shrunken log2 fold change
RRIRERPPRLPRPRPRPNNSPRP | -0.693
RRIRYRPPRLPRPRPRPLAPPRP | 0.107
RRIRNRPPRLPRPRPRPANQPRP | 0.271
RRIRDRPPRLPRPRPRPNPVPRP | -0.41
RRIRDRPPRLPRPRPRPSRTPRP | 0.208
RRIRDRPPRLPRPRPRPCCYPRP | 0.503
RRIRTRPPRLPRPRPRPDRQPRP | -0.0344
RRIRTRPPRLPRPRPRPHLKPRP | -0.207
RRIRSRPPRLPRPRPRPFQEPRP | -0.0528
RRIRRRPPRLPRPRPRPAYYPRP | 0.0681
RRIRERPPRLPRPRPRPKCVPRP | 0.0364
RRIRSRPPRLPRPRPRPNKQPRP | -0.221
RRIRNRPPRLPRPRPRPMFKPRP | -0.386
RRIRQRPPRLPRPRPRPALNPRP | -0.0345
RRIRPRPPRLPRPRPRPQIHPRP | -0.536
RRIRIRPPRLPRPRPRPIFRPRP | -0.013
RRIRVRPPRLPRPRPRPCDPPRP | -0.107
RRIRMRPPRLPRPRPRPAEFPRP | 1.15
RRIRLRPPRLPRPRPRPIKRPRP | -0.466
RRIRWRPPRLPRPRPRPPRMPRP | 0.348
RRIRGRPPRLPRPRPRPDNLPRP | -0.226
RRIRKRPPRLPRPRPRPAWPPRP | 0.675
RRIRFRPPRLPRPRPRPQCDPRP | -0.388
RRIRQRPPRLPRPRPRPNSYPRP | -0.225
RRIRQRPPRLPRPRPRPQKQPRP | 0.057

Sequence | shrunken log2 fold change
RRIRWRPPRLPRPRPRPQSCPRP | 0.0975
RRIRRRPPRLPRPRPRPHEVPRP | 0.0299
RRIRSRPPRLPRPRPRPRRFPRP | -0.0186
RRIRQRPPRLPRPRPRPPLRPRP | 0.49
RRIRKRPPRLPRPRPRPDKYPRP | -0.309
RRIRMRPPRLPRPRPRPENIPRP | 0.0472
RRIRYRPPRLPRPRPRPEFCPRP | -0.258
RRIRSRPPRLPRPRPRPFKQPRP | -0.468
RRIRERPPRLPRPRPRPVTCPRP | -0.204
RRIRIRPPRLPRPRPRPSDEPRP | -0.698
RRIRSRPPRLPRPRPRPAEDPRP | -0.0146
RRIRGRPPRLPRPRPRPDMNPRP | 1.35
RRIRWRPPRLPRPRPRPTSIPRP | -0.22
RRIRERPPRLPRPRPRPITAPRP | -0.573
RRIRNRPPRLPRPRPRPFHHPRP | -0.27
RRIRVRPPRLPRPRPRPGHCPRP | 0.258
RRIRCRPPRLPRPRPRPEAVPRP | 0.383
RRIRDRPPRLPRPRPRPGATPRP | 1.01
RRIRQRPPRLPRPRPRPVNPPRP | -0.085
RRIRKRPPRLPRPRPRPDGSPRP | 0.132
RRIRWRPPRLPRPRPRPVVGPRP | 0.738
RRIRVRPPRLPRPRPRPAVDPRP | 0.192
RRIRRRPPRLPRPRPRPRIYPRP | -0.0573
RRIRLRPPRLPRPRPRPDVKPRP | -0.488
RRIRVRPPRLPRPRPRPLKHPRP | -0.486
